In paper PMC5474692:
Where two headings read alike, the source gives them in different places. Blank lines part the entries; values can stand above or below the substance they belong to.

Assays:
Experiment in all cases: fluorescence anisotropy against solution viscosity
amFP486/K68M = amFP486/K68M (UniProt Q9U6Y6)
eqFP486 = biological target: eqFP486
Rosmarinus [1] = biological target: Rosmarinus
Rosmarinus [2] = biological target: Rosmarinus; remark: listed apart in the source
Rosmarinus [3] = biological target: Rosmarinus; remark: listed apart in the source

- stoichiometry N (amFP486/K68M): 4
Substance: amFP486/K68M (from UniProt Q9U6Y6 1-229) (natural protein)

Substance: eqFP486 (natural protein)
- stoichiometry N (eqFP486): 2

Substance: Rosmarinus
- stoichiometry N (Rosmarinus [1]): 4
- stoichiometry N (Rosmarinus [2]): 4
- stoichiometry N (Rosmarinus [3]): 2
